We go through 20 sequences from the DeepSol protein solubility set.

This data set can be described thus: soluble on expression in E. coli; label from the status in PepcDB or PDB records.
Turning to “MAKAVGIDLGTTNSVIAVLEGGKPVVLENAEGERVTPSVVAFRDGETLVGRMAKRQAVLNPEGTIFEIKRFIGRRFEEVQEEAKRVPYKVVPGPDGGVRVEVKGKLYTPEEISAMILRKLVEDASKKLGEKITKAVITVPAYFNNAQREATANAGRIAGLEVLRIINEPTAAALAYGLDKKGNETVLVFDLGGGTFDVTILEIGEGVFEVKATSGDTHLGGSDMDHAIVNWLAEEFKKEHGVDLKADRQALQRLIEAAEKAKIELSSTLETTISLPFIALDPASKTPLHLEKKLTRAKFEELIQPLLKRLRGPVEQALKDAGLTPAQIDEVILVGGATRVPAVQQVVRELLGKEPNRSVNPDEVVAMGAAIQAGVLMGEVRDVVLLDVTPLSLGVETKGGVMTVLIPRNTTIPTRKCEIFTTAEHNQTAVKSIVFQGKRPMAQDNKSLGRFRLEGIPPMPAGVPQIEVCFDIDANGILHVTAKERSTGREASITIQNTTTLSEEEIQRIIEEAKRHAEEDRRRREHAELKNALDSARVQAERVLQERQGAPEARARLEAAIGKAKELVERDAPDPELKAATEELLKAVEEYEKGAQAASGKGPDDVIDADYKPAD”, the “soluble on expression in E. coli” value was “soluble”.
On to “MTRAKQIILWASLSAMPLIAQASERSDDEIKALVYQAILERPEIILQAVEQLQQAEEAAQAASAHAALTENRDSLFNDPNAPVLGNPEGDVTVVEFFDYNCPYCRRAMAEVQGLVDADPNVRLVYREWPILGEGSDFAARAALAARQQGKYEAFHWALMGMSGKANETGVLRIAREVGLDTEQLQRDMEAPEVTAHIAQSMALAQKLGFNGTPSFVVEDALVPGFVEQSQLQDAVDRARKAAAK”, for which the “soluble on expression in E. coli” value is given as “not soluble”.
Regarding “MGSDKIHHHHHHMSYSEKMLAALSNGQIDTAKKHFAWALRKDDDQTLYSLAEELYGLGFLKQAERTYKKLLAKYPDEDDLRTSLADIAIDEDDTDLALDYLQQVKPDSPAYVQALLVEADLYQTQELFEVSEQKLKEAYQLAPDEPVVEFALAEFYFLIRNYGQATRFYLDLIKQGQLEISKVNLVERLGVAYAESGRFEQAVGYLEQIKPAKLTPDSQFELGFTYLQLNEPQKAVDIFDKLREQDNQYASLYPYLAQAQEQLHQLDKALLTLQEGLAVDQYNEQLYLQTARLALKLDDQELAEKYLREGLSIDPDNLTTVLELSNLLVQRERYQDNIDLLDQYLQSNEFDPQFYWNLAISNDRLDHFQAAKDNYEAAYPFFEHNKDFLKPAIYFFREAGMADSAVAALRNYLTIEPDDGEMVAMLEDYEDQGY”, the “soluble on expression in E. coli” value is recorded as “not soluble”.
Take “MPLTPADVHNVAFSKPPIGKRGYNEDEVDAFLDLVENELTRLIEENSDLRQRINELDQELAAGGGAGVTPQATQAIPAYEPEPGKPAPAAVSAGMNEEQALKAARVLSLAQDTADRLTNTAKAESDKMLADARANAEQILGEARHTADATVAEARQRADAMLADAQSRSEAQLRQAQEKADALQADAERKHSEIMGTINQQRAVLEGRLEQLRTFEREYRTRLKTYLESQLEELGQRGSAAPVDSNADAGGFDQFNRGKN”: the “soluble on expression in E. coli” value is “soluble”.
Under “MKLIITEDYQEMSRVAAHHLLGYMSKTRRVNLAITAGSTPKGMYEYLTTLVKGKPWYDNCYFYNFDEIPFRGKEGEGVTITNLRNLFFTPAGIKEENIQKLTIDNYREHDQKLAREGGLDLVVLGLGADGHFCGNLPNTTHFHEQTVEFPIQGEMVDIVAHGELGGDFSLVPDSYVTMGPKSIMAAKNLLIIVSGAGKAQALKNVLQGPVTEDVPASVLQLHPSLMVIADKAAAAELAFG” stands “soluble”.
On to “MQQNIRIQKNQYDTATHPTASSTTWKYVTYDETSETFGMSEQVADPCNHCPKPRNYNSECKDEDVEKHFEKVMPCVHTYTIIYGNVHHLPNHPIIRNLRHNHY”, for which the “soluble on expression in E. coli” value is “soluble”.
For the sequence “MGSDKIHHHHHHMSIAVTTTDPTNTGVSTTSSSSLTGSNAADLQSSFLTLLVAQLKNQDPTNPMENNELTSQLAQISTVSGIEKLNTTLGSISGQIDNSQSLQASNLIGHGVMIPGTTVLAGTGSEEGAVTTTTPFGVELQQAADKVTATITDKNGAVVRTIDIGELTAGVHSFTWDGTLTDGSTAPNGSYNVAISASNGGTQLVAQPLQFALVQGVIRGNSGNTLDLGTYGTTTLDEVRQII”, the “soluble on expression in E. coli” value is “not soluble”.
Consider “GMVTTRKPLRAAIIGLGRLGERHARHLVNKIQGVKLVAACALDSNQLEWAKNELGVETTYTNYKDMIDTENIDAIFIVAPTPFHPEMTIYAMNAGLNVFCEKPLGLDFNEVDEMAKVIKSHPNQIFQSGFMRRYDDSYRYAKKIVDNGDIGKIIYMRGYGIDPISGMESFTKFATEADSGGIFVDMNIHDIDLIRWFTGQDPVQAYGLTSNIAAPQLADIGEFETGVAQLKMSDGVIATLIGGRHAAHGNQVELEVMGSNGWVRIGEHPDLNRVTVFNDQGVVRPSLQSFGERFDTAFTDEVQDFVNNVIVGKQPEVTVDDGIKALKIAKACQQSANIGKLVDIQL”, for which the “soluble on expression in E. coli” value is on record as “soluble”.
“MSFCSFFGGEVFQNHFEPGVYVCAKCSYELFSSHSKYAHSSPWPAFTETIHPDSVTKCPEKNRPEALKVSCGKCGNGLGHEFLNDGPKRGQSRFCIFSSSLKFVPKGKEAAASQGHLEHHHHHH”: the “soluble on expression in E. coli” value is reported as “soluble”.
Turning to “VRSVQEHQRVVAEMMRACRPITVPLTQAQGLVLGGDVVAPLSLPVFDNSAMDGYAVRAEDTSGATPQNPVMLPVAEDIPAGRADMLTLQPVTAHRIMTGAPVPTGATAIVPVEATDGGVDSVAIRQQATPGKHIRRSGEDVAAGTTVLHNGQIVTPAVLGLAAALGLAELPVLPRQRVLVISTGSELASPGTPLQPGQIYESNSIMLAAAVRDAGAAVVATATAGDDVAQFGAILDRYAVDADLIITSGGVSAGAYEVVKDAFGSADYRGGDHGVEFVKVAMQPGMPQGVGRVAGTPIVTLPGNPVSALVSFEVFIRPPLRMAMGLPDPYRPHRSAVLTASLTSPRGKRQFRRAILDHQAGTVISYGPPASHHLRWLASANGLLDIPEDVVEVAAGTQLQVWDLT”, the “soluble on expression in E. coli” value is “not soluble”.
For the sequence “MGSDKIHHHHHHMADQKETIKPFKKIAIFDIFSGENSEIICSDKSKIAAQVNKWVNRAISNGADSCYVRLYEANKENIDTIIENLSYKILQIILPFSLNYKSSLVSAFHFREKDQIKMPEAKSNNVLFGKSCHSLKSIEEAEYEGLDYVFFSPIFATPTHPEAKGIGLDMLTQACKSTQMKVFALGGINENNYQKCLDAGASGIAAISMFKK”, the “soluble on expression in E. coli” value is recorded as “not soluble”.
In the case of “MLANFSQKAQETLVGELEELVSTTNLKGVITYCNDAFCRVAEYTHEELVGQNHNIVRHSDMPKAAFGDMWARLKEGKAWRGMVKNSTKSGGYYWVDAYVTPIYEKNQVVGYQSVRVKPKREWVDIAAKAYKGMLAAEKAGRTWSLKINETVRYAILLGALTAPAVAYALSVEGPLAWLASALPASVLALLFRQELIDTPQQLKKLQKQYDSVSRLIYSGNSAFSIADFHIKMLSARIRTVLGRMTDSALPLQNCAEELSQTTSEVSAALNQQNSDIRRVRDATQEVESSANSVSSSTNDAHMLIDDTLKSCMMAKETIDQTHTNLAQLSLQA”, the “soluble on expression in E. coli” value was “not soluble”.
Turning to “MGHHHHHHSHMVISWHLASDMDCVVTLTTDAARRIYDETQGRQQVLPLDSIYKKTLPDWKRSLPHFRNGKLYFKPIGDPVFARDLLTFPDNVEHCETVFGMLLGDTIILDNLDAANHYRKEVVKITHCPTLLTRDGDRIRSNGKFGGLQNKAPPMDKLRGMVFGAPVPKQCLILGEQIDLLQQYRSAVCKLDSVNKDLNSQLEYLRTPDMRKKKQELDEHEKNLKLIEEKLGMTPIRKCNDSLRHSPKVETTDCPVPPKRMRREATRQNRIITKTDV”, the “soluble on expression in E. coli” value is “not soluble”.
“SQNNEIIKPAKYFSELEKSILLALVEKYKYVLECKKSDARTIALKQRTWQALAHEYNSQPSVSLRDFKQLKKCWENIKARTKKIMAHERREKVKRSVSPLLSTHVLGKEKIASMLPEQLYFLQSPPEEEPEYHPDASAQESFAVSNRELCDDEKEFIHFPVCEGTSQPEPSCSAVRITANKNYRSKTSQEGALKKMHEEEHHQQMSILQLQLIQMNEVHVAKIQQIERECEMAEEEHRIKMEVLNKKKMYWERKLQTFTKEWPVSSFNRPFPNSP”: the “soluble on expression in E. coli” value is “soluble”.
Take “MPLTNNSTTKPQEIAAIDLGSNSFHMVIARVVNGALQVLGRLKQRVHLADGLDSNNMLSEEAIERGLACLALFAERLQGFSPDNVCIVGTHTLRQAANAETFLKRAAEVIPYPIEIISGQEEARLIFMGVEHTQPEKGRKLVIDIGGGSTEMVIGEDFEPLLVESRRMGCVSFAQQFFPGGEISKNNFRRARLAAAQKLENLAWQYRIQGWQYALGASGTIKATYEVLVEMGEKDGLITPERLEMLVENVLQFKQFSALSLPGLSEDRQSVFVPGLAILCGVFDALAIKTLRLSDGALREGVLYEMEGRFRHQDIRQRTAKSLADHYNIDREQARRVLETTEQLYTQWLAQNTKLVQPQLEALLKWAAMLHEVGLSINHSGMHRHSAYILQNTNLPGFNQEQQTLLATLVRMHRKAIKLDELPRLNLFKKKYYLPLIQLLRLSTLLNNQRQSTTTPESLRLITDDSHWTLRFPHGYLTQNSLVQLDFEREQAYWDDVVGWKLVIEEEEPDEAAKVAPEE”: the “soluble on expression in E. coli” value was “soluble”.
In the case of “MGSDKIHHHHHHMAGKLFIVILTPVCNGNCLYCGGYDEGLMPPKIQYPLESLKKIADGNSVAFYGGEPLLEMEKMKEIMDSVKAEHFILQTNGLKLNRLEDEYIRRFSTILVSFDGRREVHDLYRGNYERVLENVLNVRRKGFEGELIARMVASQETDIYEDVMHILNLDCFTHVHWQIDAVWSSDGVWRDFERWVERYNAGVRKLVKFWASELRKGVLHGLVPFMGVATAIFKPFTHPPCSSGFESFAIATDGRILACPICPDLDWNEVGSLDEGIKRRLEILEPCLSCSYFRFCGGRCVFFNRERLWGDRGFRLVCSTVKNLVDSILACKHLILANKEKIMYPRFLNTTEIIP”, the “soluble on expression in E. coli” value is listed as “not soluble”.
Regarding “MAHHHHHHMCVHTFVRMNAWMCSSLSITQQNTITPPHYMQNSAFRVASLLQSRHRRGICDEGESTLAKLTQGVEMFLQHAADVPPVMLEKLSEVGDADTSTNGCSERHDDVDESMDEAEVHLSVVAGVLEPREMPKNVSTMSGLLLPTADNRKALERQKVEEAQAMLNLLAALTANNKKENTIGALTGTSEAEVDDESTTTSDESVVICYADELESDTTSSCSEADAQQEPQRSARIIELN”, the “soluble on expression in E. coli” value is “not soluble”.
As to “MGRGSFTQIDTPDQVTERMRALLVKLESPAVTDLTATFSEPGIDVTPARLPDLYRGEPLTLSARMGQARGTLTLTGRIGGQPWQTQLHLDAAQDGTGIGKLWARAKIAEAETARLTGGLTAEAADAAILRLALDHGLTTRLTSLVAVDATPRRPAGMRLASTELPLNLPAGWDFETVFGTQDELEHHHHHH”, the “soluble on expression in E. coli” value was “not soluble”.
With “MIRQLSLKDYEGVAGSALIDEIRSLGESLQGYNVRHINSTIIGGGVAEILSSLVPLMEDVGLTVNWEVLAGTTEFFHTTKLFHNGMHGQPVNITGEMLENYLAIAQKNQNLLDGDADLVVIHDQQPLGLTAFRGRTRGRWLWYCHVDPRYAVPEVWYFLAPMVATCDAAVFHLPEYARDLPVLQYFMPPAIDPLSDKLEHHHHHH”, the “soluble on expression in E. coli” value is “soluble”.
Under “QLHELANTFGQDLQRRYGEKVHKLTLHGGFSCPNRDGTIGKGGCTFCNVASFADEQEQFKSIHDQLTDRAGEVQRAKKYLAYFQAYTSTFAEVQVLKNMYEEALKAANIVGLCVGTRPDCVPDAVLDLLKGYVDDGYEVWLELGLQTANDKTLKRINRGHDFACYDAITRKARSLGIKVCTHLIIGLPGDTRDDNRQTLDKVLATGTDGIKLHPLHIVEGSTLAKAWRAGKLDAPEMDEYVDIACELIRLTPPEVVYHRVSATARQPTLLSPLWCEPRWLGLTNVGMALNNSGPQGS” stands “not soluble”.
